Results taken from paper PMC13544220, “Glycemic and bodyweight effects of GIPR coding variation reflect differences in surface expression and intrinsic functional impairment” (Science Advances, 2026).

Legend:
Assay type in all cases: cell-based, human
[1] = test system: wild-type and variant SNAP-GIPR; test: Constitutive and agonist-mediated internalization, reversible SNAP-tag labelling, AD293 cells; set-up: key to Internalisation, Vehicle / Internalisation, +GIP / Internalisation, GIP-only: % internalization: residual fluorescence after Mesna vs pre-Mesna; Surface expression: unit not given here; settings: Mean
Procedure, shortened: (§1)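 Surface SNAP-GIPR signal removable by Mesna was tracked by imaging before and 10 min after treatment in pH 8.6 TNE buffer. Internalization is the Mesna-resistant share of specific fluorescence.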

[2] = test system: wild-type and variant SNAP-GIPR; test: Single-concentration GIP cAMP response by HTRF in AD293 cells; settings: Fig S3F, HTRF, mean;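 note: ratio to experiment-wide average response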
Procedure: (§2) All variants were tested in parallel on each occasion to control for transfection efficiency differences between experiments.

[3] = test system: wild-type and variant SNAP-GIPR; test: Surface SNAP-GIPR expression (SNAP-tag labelling) in INS-1 cells; settings: Fig 4G; Mean
Procedure, shortened: (§3)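 Surface GIPR is quantified from wide-field images after labelling intact transfected cells with a membrane-impermeant SNAP probe at 500 nM for 10 min at room temperature. Specific signal, corrected for nontransfected cells, is normalized to the experiment-wide average or to wild-type.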

[4] = test system: wild-type and variant SNAP-GIPR; test: cADDis cAMP imaging in AD293 cells, ensemble, expression-matched and per decile; settings: Fig S3F, cADDis, mean
Procedure, shortened: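 Per-cell cAMP from cADDis intensity over time, with cells excluded by IBMX/FSK response criteria. Expression matching used wild-type surface-SNAP deciles, top and bottom trimmed, mean of decile means. Ensemble values ignore deciles. Wide-field imaging at 37 °C in KRBH with 6 mM glucose, 0.1% BSA, 24 h post-transfection in AD293.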

[5] = test system: wild-type and variant SNAP-GIPR; test: Surface SNAP-GIPR expression (SNAP-tag labelling) in AD293 cells; settings: for AD293 Surface: Fig S3E, mean; for Surface SNAP-GIPR expression: sheet Fig 1C;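 for all read-outs here: scaled to the experimental average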
Procedure, shortened: as §3

[6] = test system: wild-type and variant SNAP-GIPR; test: Single-concentration GIP cAMP response by HTRF in INS-1 cells; settings: Fig S3E, mean
Procedure: as §2

[7] = test system: wild-type and variant SNAP-GIPR; test: Constitutive and agonist-mediated internalization, reversible SNAP-tag labelling, INS-1 cells; set-up: key to Internalisation, GIP-only / Internalisation, Vehicle / Internalisation, +GIP: % internalization: residual fluorescence after Mesna vs pre-Mesna; settings: Mean
Procedure, shortened: as §1

B1: R336P (protein, UniProt P48546 22-466, looked up, variant R336P)
Gastric inhibitory …: RAETGSKGQTAGELYQRWERYRRECQETLAAAEPPSGLACNGSFDMYVCWDYAAPNATARASCPWYLPWHHHVAAGFVLRQCGSDGQWGLWRDHTQCENPEKNEAFLDQRLILERLQVMYTVGYSLSLATLLLALLILSLFRRLHCTRNYIHINLFTSFMLRAAAILSRDRLLPRPGPYLGDQALALWNQALAACRTAQIVTQYCVGANYTWLLVEGVYLHSLLVLVGGSEEGHFRYYLLLGWGAPALFVIPWVIVRYLYENTQCWERNEVKAIWWIIRTPILMTILINFLIFIRILGILLSKLRTRQMRCRDYPLRLARSTLTLVPLLGVHEVVFAPVTEEQARGALRFAKLGFEIFLSSFQGFLVSVLYCFINKEVQSEIRRGWHHCRLRRSLGEEQRQLPERAFRALPSGSGPGEVPTSRGLSSGTLPGPGNEASRELESYC
+GIP internalisation (100 nM) ([1]; Fig 4E, GIP 100 nM): 0.6438
GIP-specific internalisation (100 nM) ([1]; Fig 4E, GIP 100 nM): 0.1531
Constitutive internalisation (100 nM) ([1]; Fig 4E): 0.4907
Surface expression ([1]; Fig 4E): 1.092
Internalisation, +GIP ([1]; Fig S4C, AD293): 55.5681
Internalisation, GIP-only ([1]; Fig S4C, AD293): 13.0056
Internalisation, Vehicle ([1]; Fig S4C, AD293): 42.5625
AD293 100 pM HTRF ([2]; AD293, 100 pM): 1.285
AD293 100 nM HTRF ([2]; AD293, 100 nM): 1.143
Surface expression [3]: 0.9442
AD293 100 pM cADDis ([4]; AD293, 100 pM): 30.0491
AD293 100 nM cADDis ([4]; AD293, 100 nM): 33.63
AD293 Surface ([5]; column repeated, paired with cAMP 100 nM): 0.9922
AD293 Surface ([5]; paired with cAMP 100 pM): 0.9922
Surface SNAP-GIPR expression ([5]; replicate 1): 1.065
Surface SNAP-GIPR expression ([5]; replicate 2): 0.5013
Surface SNAP-GIPR expression ([5]; replicate 3): 1.132
Surface SNAP-GIPR expression ([5]; replicate 4): 0.7089
Surface SNAP-GIPR expression ([5]; replicate 5): 1.372
Surface SNAP-GIPR expression ([5]; replicate 6): 0.9533
Surface SNAP-GIPR expression ([5]; replicate 7): 1.085
Surface SNAP-GIPR expression ([5]; replicate 8): 0.9069
Surface SNAP-GIPR expression ([5]; replicate 9): 0.9059
Surface SNAP-GIPR expression ([5]; replicate 10): 0.7148
Surface SNAP-GIPR expression ([5]; replicate 11): 1.055
Surface SNAP-GIPR expression ([5]; replicate 12): 1.013
Surface SNAP-GIPR expression ([5]; replicate 13): 0.7103
Surface SNAP-GIPR expression ([5]; replicate 14): 1.142
Surface SNAP-GIPR expression ([5]; replicate 15): 0.8074
Surface SNAP-GIPR expression ([5]; replicate 16): 0.9322
Surface SNAP-GIPR expression ([5]; replicate 17): 0.8667
Surface SNAP-GIPR expression ([5]; replicate 18): 1.004
Surface SNAP-GIPR expression ([5]; replicate 19): 0.9824
Surface SNAP-GIPR expression ([5]; replicate 20): 1.058
Surface SNAP-GIPR expression ([5]; replicate 21): 0.9727
Surface SNAP-GIPR expression ([5]; replicate 22): 0.8965
Surface SNAP-GIPR expression ([5]; replicate 23): 0.778
Surface SNAP-GIPR expression ([5]; replicate 24): 0.7544
Surface SNAP-GIPR expression ([5]; replicate 25): 1.062
Surface SNAP-GIPR expression ([5]; replicate 26): 1.025
Surface SNAP-GIPR expression ([5]; replicate 27): 0.9727
Surface SNAP-GIPR expression ([5]; replicate 28): 0.7869
Surface SNAP-GIPR expression ([5]; replicate 29): 1.148
Surface SNAP-GIPR expression ([5]; replicate 30): 1.341
Surface SNAP-GIPR expression ([5]; replicate 31): 1.222
Surface SNAP-GIPR expression ([5]; replicate 32): 1.042
Surface SNAP-GIPR expression ([5]; replicate 33): 1.006
Surface SNAP-GIPR expression ([5]; replicate 34): 0.7344
Surface SNAP-GIPR expression ([5]; replicate 35): 1.077
Surface SNAP-GIPR expression ([5]; replicate 36): 1.167
Surface SNAP-GIPR expression ([5]; replicate 37): 1.212
Surface SNAP-GIPR expression ([5]; replicate 38): 1.22
Surface SNAP-GIPR expression ([5]; replicate 39): 1.259
Surface SNAP-GIPR expression ([5]; replicate 40): 1.054
Surface SNAP-GIPR expression ([5]; replicate 41): 1.032
INS-1 cAMP (100 nM) [6]: 0.7986
+GIP internalisation (100 nM) ([7]; Fig 4G, GIP 100 nM): 0.578
GIP-specific internalisation (100 nM) ([7]; Fig 4G, GIP 100 nM): 0.1817
Constitutive internalisation (100 nM) ([7]; Fig 4G): 0.3963
Internalisation, +GIP ([7]; Fig S4C, INS-1): 55.395
Internalisation, GIP-only ([7]; Fig S4C, INS-1): 16.7483
Internalisation, Vehicle ([7]; Fig S4C, INS-1): 38.6467
